Measurements: paper PMC8235110, “Effective Tumor Targeting by EphA2-Agonist-Biotin-Streptavidin Conjugates” (Molecules, 2021)
Entries after “also recorded” stand apart in the source; their conditions may differ. Values belong to the molecule of their own block, whether it stands above or below them. Square brackets hold non-standard residues; d marks the D form. Peptide text beside a SMILES is read from it. * marks the point of attachment. 4‑CH3‑Tyr = 4-CH3-Tyr: 4-methyl-tyrosine, a non-natural residue; 2Benzofuroyl(3-Me,6,7-diOMe) = COc1ccc2c(C)c(C(=O)*)oc2c1OC; Phe(4-Cl) = N[C@@H](Cc1ccc(Cl)cc1)C(=O)O; Hyp = O=C(O)[C@@H]1C[C@@H](O)CN1

Tests used:
purified EphA2-LBD = molecular target: T1, purified EphA2-LBD (Homo sapiens, UniProt P29317); experiment: reverse isothermal titration calorimetry (ITC); assay type: binding; conditions: reverse ITC titration with purified EphA2-LBD
T1 construct: made in house
T1 sequence (P29317 28-206 limits assumed): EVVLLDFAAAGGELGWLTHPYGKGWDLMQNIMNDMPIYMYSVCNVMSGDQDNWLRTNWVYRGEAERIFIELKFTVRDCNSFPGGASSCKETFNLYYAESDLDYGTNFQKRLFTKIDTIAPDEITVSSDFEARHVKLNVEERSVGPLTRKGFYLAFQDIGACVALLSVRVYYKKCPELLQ

[1] = molecular target: T2, EphA2-LBD (6xHis-EphA2 ligand-binding domain) (Homo sapiens, UniProt P29317); experiment: DELFIA displacement of biotinylated EphA2-binding reference peptide; conditions: DELFIA dose-response; listed as scrambled version of 135H11
T2 construct: made in house
T2 sequence (P29317 28-206 limits assumed): as above

EphA2 in BxPC3 cells = experiment: EphA2 receptor degradation, Western blot, BxPC3; assay type: cell-based, human; conditions: 1 h; 147B5 50 nM to 200 nM with streptavidin 50 nM (n = 1 to 4); scrambled 200 nM; 135H12 50 and 200 nM monomer concentration; ephrinA1-Fc 22 nM monomer (1 μg/mL); total EphA2, anti-EphA2 blot, relative to DMSO, duplicate
Text: (Table 1). […] In these cell-based assays, receptor activation and degradation could be simply monitored by detecting the ability of each agent to reduce EphA2 expression levels over time, after exposure of cells to test ligands. […] Negative controls were DMSO-treated cells or cells treated with the (scrambled 147B5)4-streptavidine complex (Figure 3).
For the control scrambled agent, we tested it at its maximal 4:1 molar ratio with streptavidin. For these experiments we treated cells with increasing concentrations of 147B5 (from 50 nM to 200 nM) in the absence or presence of streptavidin (50 nM). […]
Figure 4 Effect of 147B5 and its complexes with streptavidin at various ratios on EphA2 receptor degradation. […] (b) Densitometry analysis based on duplicate measurements of band intensities relative to the bands of DMSO-treated cells. * p ≤ 0.05, as determined by a one-way analysis of variance using Dunnett post-test analysis. […]
Cells were lysed with cell lysis buffer (20 mM Tris, pH 7.4, 120 mM NaCl, 1% Triton X-100, 0.5% sodium deoxycholate, 0.1% SDS, 1% IGEPAL, 5 mM EDTA), supplemented with EDTA-free Protease Inhibitor Cocktail and PhosStop (Sigma Aldrich) for 15 min on ice. […] Subsequently, Clarity Western ECL solution (BIO-RAD) was added to the blots prior to being imaged on a FluorChem (ProteinSimple) and analyzed with AlphaView software.

EphA2 = conditions: cited from earlier work
[2] = tested on: EphA2 in MDA-MB-231 cells; experiment: EphA2 receptor degradation, Western blot, MDA-MB-231; assay type: cell-based, human; conditions: 1 h; 147B5 50 nM to 200 nM with streptavidin 50 nM (n = 1 to 4); scrambled 200 nM; 135H12 50 and 200 nM monomer concentration; ephrinA1-Fc 22 nM monomer (1 μg/mL); total EphA2, anti-EphA2 blot, relative to DMSO, duplicate
[3] = molecular target: 6xHis-EphA2 ligand-binding domain; experiment: DELFIA displacement assay; earlier-generation biotinylated EphA2-binding reference peptide captured on streptavidin-coated 96-well plates; 6xHis-EphA2-LBD and Europium-conjugated anti-6xHis antibody added together with the test agent at various doses; residual fluorescence read after washing
Sequence of 6xHis-EphA2 ligand-binding domain (P29317 whole entry, the tested form may be a part): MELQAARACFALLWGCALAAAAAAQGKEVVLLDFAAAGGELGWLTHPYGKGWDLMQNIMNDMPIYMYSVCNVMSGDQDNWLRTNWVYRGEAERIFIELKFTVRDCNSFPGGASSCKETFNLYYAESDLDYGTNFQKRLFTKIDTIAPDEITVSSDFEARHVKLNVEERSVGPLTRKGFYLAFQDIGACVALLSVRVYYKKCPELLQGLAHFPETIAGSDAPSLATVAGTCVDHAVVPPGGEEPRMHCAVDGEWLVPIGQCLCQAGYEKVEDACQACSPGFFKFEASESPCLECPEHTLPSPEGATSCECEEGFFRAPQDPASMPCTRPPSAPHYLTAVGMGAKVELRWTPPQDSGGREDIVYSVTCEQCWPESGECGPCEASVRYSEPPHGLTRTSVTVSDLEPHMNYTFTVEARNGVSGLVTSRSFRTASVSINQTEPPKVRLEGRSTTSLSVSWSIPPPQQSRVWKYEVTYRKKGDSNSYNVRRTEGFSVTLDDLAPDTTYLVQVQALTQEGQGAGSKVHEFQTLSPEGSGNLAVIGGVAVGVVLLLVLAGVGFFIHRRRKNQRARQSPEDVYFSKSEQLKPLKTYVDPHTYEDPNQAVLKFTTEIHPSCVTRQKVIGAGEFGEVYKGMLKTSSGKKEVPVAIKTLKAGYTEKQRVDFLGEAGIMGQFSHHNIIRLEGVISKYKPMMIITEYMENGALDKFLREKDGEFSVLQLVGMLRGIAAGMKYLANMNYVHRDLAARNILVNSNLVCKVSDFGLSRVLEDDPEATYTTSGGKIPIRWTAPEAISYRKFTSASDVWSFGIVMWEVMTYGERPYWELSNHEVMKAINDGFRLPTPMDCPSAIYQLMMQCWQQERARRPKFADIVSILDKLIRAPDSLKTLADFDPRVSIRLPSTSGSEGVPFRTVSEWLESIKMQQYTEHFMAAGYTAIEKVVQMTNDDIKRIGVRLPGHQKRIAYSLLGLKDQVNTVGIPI

[4] = molecular target: 6xHis-EphA2 ligand-binding domain; experiment: ITC; reverse ITC titration with purified EphA2-LBD

Kd (ITC) (purified EphA2-LBD; N.B. = no binding detected by ITC): N.B. (ITC)
binding to EphA2-LBD by ITC (in words) (purified EphA2-LBD; listed as 147B5 scrambled version): no appreciable binding was detected
binding to EphA2-LBD by ITC (in words) (purified EphA2-LBD; listed as scrambled version of 147B5): no binding detected
Molecule: (3-CH3,6,7-OCH3,Benzofuranoic acid)DP(4-CH3-Tyr)A(Hyp)LRG(4-Cl-Phe)PVA-GK(Biotin LC)-CONH2 [Scrambled-147B5, scrambled 135H11-biotinylated (control)]

Molecule: COc1ccc(C[C@H](NC(=O)[C@@H]2CCCN2C(=O)[C@H](CC(=O)O)NC(=O)c2oc3c(OC)c(OC)ccc3c2C)C(=O)N[C@@H](C)C(=O)N2C[C@H](O)C[C@H]2C(=O)N[C@@H](CC(C)C)C(=O)N[C@@H](CCCNC(=N)N)C(=O)NCC(=O)N[C@@H](Cc2ccc(Cl)cc2)C(=O)N2CCC[C@H]2C(=O)N[C@H](C(=O)N[C@@H](C)C(N)=O)C(C)C)cc1 [Scrambled-135H11] ({2Benzofuroyl(3-Me,6,7-diOMe)}-DPY(Me)A[Hyp]LRG[Phe(4-Cl)]PVA-NH2)
inhibition in DELFIA (in words) [1]: no inhibition

B1: ephrinA1-Fc: dimeric ephrinA1-Fc chimera, positive control (protein)
chain: DRHTVFWNSSNPKFRNEDYTIHVQLNDYVDIICPHYEDHSVADAAMEQYILYLVEHEEYQLCQPQSKDQVRWQCNRPSAKHGPEKLSEKFQRFTPFTLGKEFKEGHSYYYISKPIHQHEDRCLRLKVTVSGKITHSPQAHDNPQEKRLAADDPEVRVLHSIGHS
modifications: left off: Fc, end not stated, kept
notes: dimeric ephrinA1-Fc chimera, positive control
EphA2 receptor degradation in BxPC3 cells (in words) (EphA2 in BxPC3 cells): nearly complete degradation of the EphA2 receptor
receptor degradation, agonistic effectiveness in cells (in words) (EphA2; at nanomolar concentrations, ref [5],[28],[29],[30],[31],[34]): dramatically more effective as an agonist
EphA2 dimer formation, activation, internalization, degradation (in words) (EphA2; legend of schematic, no reference given): can efficiently induce dimer formation and receptor activation, internalization, and degradation
EphA2 receptor degradation in MDA-MB-231 cells (in words) [2]: significant degradation of the EphA2 receptor; also recorded: very effective in causing EphA2 degradation

IC50 [3]: > 10000 nM
Molecule: {2Benzofuroyl(3-Me,6,7-diOMe)}-DP[4‑CH3‑Tyr]A[Hyp]LRG[Phe(4-Cl)]PVA-NH2 [Scrambled-135H11]

Kd [4]: 117 nM
B2: 147B5 (135H11-biotinylated) (peptide)
peptide: LAYPDAVPFRPGK
modifications: N-terminal 3-CH3,6,7-OCH3,Benzofuranoic acid; 4-CH3-Tyr at position 3; Hyp (trans 4-hydroxy-L-proline) at position 8; 4-Cl-Phe at position 9; K(Biotin LC) at position 13 (LC: long 6 atom hydrocarbon chain between the biotin and the amide bond); C-terminal amide (-CONH2)
